Patent publication US20190314531A1

Assays:
[1] = biological target: human PD-L1 on cells (CHO cells stably expressing human PD-L1; MDAMB231, HCC827, H226, doxycycline-treated A549-iPDL1 cells and their tumors) (human) (UniProt Q9NZQ7); assay: cell-based or functional assay
[2] = biological target: recombinant human PD-L1(B7-H1)-His-tag protein (catalog #9049-B7, R&D systems) (human) (UniProt Q9NZQ7); assay: FRET competitive inhibition of PD-L1 binding to PD-1
[3] = biological target: human PD-L1 on cells (CHO cells stably expressing human PD-L1; MDAMB231, HCC827, H226, doxycycline-treated A549-iPDL1 cells and their tumors) (human) (UniProt Q9NZQ7); assay: hPD-L1 cells, 1 uM blocking dose of WL12; competitor [^64Cu]WL12
[4] = biological target: human PD-L1 on cells (CHO cells stably expressing human PD-L1; MDAMB231, HCC827, H226, doxycycline-treated A549-iPDL1 cells and their tumors) (human) (UniProt Q9NZQ7); assay: flow cytometry, in vitro binding; competitor Cy5-conjugated AtzMab
[5] = biological target: recombinant human PD-L1(B7-H1)-His-tag protein (catalog #9049-B7, R&D systems) (human) (UniProt Q9NZQ7); assay: FRET competitive inhibition of PD-L1-His-tag binding to PD-1-Ig, Cheng-Prusoff
[6] = biological target: recombinant human PD-L1(B7-H1)-His-tag protein (catalog #9049-B7, R&D systems) (human) (UniProt Q9NZQ7); assay: FRET competitive inhibition of PD-L1-His-tag (80 nM) binding to PD-1-Ig (20 nM)
[7] = biological target: human PD-L1 on cells (CHO cells stably expressing human PD-L1; MDAMB231, HCC827, H226, doxycycline-treated A549-iPDL1 cells and their tumors) (human) (UniProt Q9NZQ7); assay: flow cytometry on hPD-L1 cells, serial dilutions of WL12; competitor BD-MIH1-PE
[8] = biological target: human PD-L1 on cells (CHO cells stably expressing human PD-L1; MDAMB231, HCC827, H226, doxycycline-treated A549-iPDL1 cells and their tumors) (human) (UniProt Q9NZQ7); assay: flow cytometry on hPD-L1 cells, serial dilutions of WL12; competitor Cy5-AtzMab
[9] = biological target: human PD-L1 on cells (CHO cells stably expressing human PD-L1; MDAMB231, HCC827, H226, doxycycline-treated A549-iPDL1 cells and their tumors) (human) (UniProt Q9NZQ7); assay: flow cytometry on Cho-hPD-L1 and MDAMB231 cells; competitors Cy5-AtzMab, Cy5-AveMab, Cy5-DurMab (ends not tied to one mAb)
[10] = biological target: human PD-L1 on cells (CHO cells stably expressing human PD-L1; MDAMB231, HCC827, H226, doxycycline-treated A549-iPDL1 cells and their tumors) (human) (UniProt Q9NZQ7); assay: radiotracer on hPD-L1 cells, 1 h, gamma counting

Chain of human PD-L1 on cells (CHO cells stably expressing human PD-L1; MDAMB231, HCC827, H226, doxycycline-treated A549-iPDL1 cells and their tumors) (human) (Q9NZQ7 19-290): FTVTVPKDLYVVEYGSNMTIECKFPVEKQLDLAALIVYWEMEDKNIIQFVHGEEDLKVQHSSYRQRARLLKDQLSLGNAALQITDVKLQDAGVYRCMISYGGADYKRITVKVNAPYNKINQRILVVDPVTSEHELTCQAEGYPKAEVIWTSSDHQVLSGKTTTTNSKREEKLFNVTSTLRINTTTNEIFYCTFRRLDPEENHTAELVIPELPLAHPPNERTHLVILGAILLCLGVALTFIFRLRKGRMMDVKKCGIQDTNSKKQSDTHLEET
Chain of recombinant human PD-L1(B7-H1)-His-tag protein (catalog #9049-B7, R&D systems) (human) (Q9NZQ7 19-239 limits assumed): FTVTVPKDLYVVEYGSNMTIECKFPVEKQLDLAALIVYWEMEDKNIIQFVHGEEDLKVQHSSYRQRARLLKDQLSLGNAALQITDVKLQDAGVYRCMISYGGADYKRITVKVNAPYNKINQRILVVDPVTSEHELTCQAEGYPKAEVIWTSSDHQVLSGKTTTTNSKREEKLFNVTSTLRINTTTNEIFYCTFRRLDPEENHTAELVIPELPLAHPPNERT

reduction in % ID/g of [^64Cu]WL12 in hPD-L1 tumors on co-injection of excess WL12 (50 ug, 2 mg/kg), 2 h [1]	IC50 [2]	reduction in bound [^64Cu]WL12 [3]	IC50 [4]	Ki [5]	IC50 [6]	IC50 [7]	IC50 [8]	inhibitory concentrations [9]	accumulation of [^64Cu]WL12 in A549-iPDL1 tumors after 72 h doxycycline against A549 control tumors [1]	radioactivity uptake in hPD-L1 tumors at 1 h, percentage of injected dose/g [1]	uptake of the incubated dose [10]	Substance
> 75%	22 nM	> 95%	37.8 nM	1.1 nM	20.3 nM	37.8 nM	2.5 nM	5 nM				WL12 (unmodified PD-L1 binding peptide)
	2.9 nM			1.38 nM	2.97 nM							WL12-Cu^2+ complex (copper complex of WL12D) (peptide)
	23 nM			10.4 nM	22.2 nM							WL12-DOTAGA (WL12D) (peptide)
									65%	14.9 % ID/g	> 50%	[^64Cu]WL12 (peptide)
